The values that follow come from US20170240633A1 (published 2017).

Residue numbers refer to the chain shown, from its start.

Sequences and labels used below:
B1: anti-TIM-3 antibody clone A3 (antibody, V domains shown)
VH: QVQLVQSGAEVKKPGASVKVSCKASGYTFTSYYMHWVRQAPGQGLEWMGIINPSGGSTSYAQKFQGRVTMTRDTSTSTVYMELSSLRSEDTAVYYCARSPGVVTALFDYWGQGTLVTVSS
VL: DIQMTQSPSFMSASVGDRVTITCRASQDIGSYLAWYQQKPGKAPKLLIYAASTLQSGVPSRFSGSGSGTDFTLTINSLQPEDFATYYCQQSYSSPPTFGPGTTLEIK
notes: From a human phage display library; ELISA screening used Fab-containing supernatants and SPR speaks of 'each candidate Fab'; The format in each assay is not clearly stated
B2: anti-TIM-3 antibody clone G6 (antibody, V domains shown)
VH: QVQLQESGPGLVKPSGTLSLTCAVSGGSISSSNWWSWVRQPPGKGLEWIGEIYHSGSTNYNPSLKSRVTISVDKSKNQFSLKLSSVTAADTAVYYCARVVAVAGTVDYWGQGTLVTVSS
VL: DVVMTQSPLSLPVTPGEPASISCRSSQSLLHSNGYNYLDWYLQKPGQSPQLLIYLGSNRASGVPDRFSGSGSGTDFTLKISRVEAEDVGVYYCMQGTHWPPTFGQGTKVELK
notes: ELISA and SPR are described for Fab; The format in each assay is not clearly stated
B3: anti-TIM-3 antibody clone A11 (antibody, V domains shown)
VH: QVQLQQWGAGLLKPSETLSLTCAVYGGSFSGYYWSWIRQPPGKGLEWIGEINHSGSTNYNPSLKSRVTISVDTSKNQFSLKLSSVTAADTAVYYCARGYVAGFDYWGQGTLVTVSS
VL: QSVVTQPPSVSAAPGQKVTISCSGSSSNIGNNYVSWYQQLPGTAPKLLIYGNNWRPSGIPDRFSGSKSGTSATLAISGLQTGDEADYYCETWDSSLSAGVFGGGTKLTVL
notes: as for B2
B4: anti-TIM-3 antibody clone B10 (antibody, V domains shown)
VH: QVQLQESGPGLVKASETLSLTCTVSGGSIGSSDYYWGWIRQPPGKGLEWIGSIYYSGSTYYNPSLKSRVTMSVDTPNNQFSLKLSSVTAADTAVYYCARGEHRGEFDYWGQGTLVTVSS
VL: EIVLTQSPATLSFSPGERATLSCRASQSVGSYLAWYQQRPGQAPRPLIYDATNRATGIPTRFSGSGSGTDFTLTISSLEPEDFATYYCQHRRTFGRGTKLEIK
notes: as for B2
B5: anti-TIM-3 antibody clone G7 (antibody, V domains shown)
VH: EVQLVQSGAEVKKPGASVKVSCKASGYTFTSYYMHWVRQAPGQGLEWMGIINPSGGSTSYAQKFQGRVTMTRDTSTSTVYMELSSLRSEDTAVYYCARDQYSSGWYYYGMDVWGQGTTVTVSS
VL: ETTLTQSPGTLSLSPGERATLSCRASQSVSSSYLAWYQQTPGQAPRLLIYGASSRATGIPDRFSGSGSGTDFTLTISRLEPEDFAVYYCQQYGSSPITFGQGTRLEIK
notes: as for B2
B6: anti-TIM-3 antibody clone G9 (antibody, V domains shown)
VH: B5 VH with E1Q, V5Q, Q100L, S103Y, W105F
VL: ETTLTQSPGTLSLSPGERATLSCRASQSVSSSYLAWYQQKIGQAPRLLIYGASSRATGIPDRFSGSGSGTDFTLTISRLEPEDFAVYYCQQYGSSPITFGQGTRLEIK
notes: as for B2

This experiment has as its target T1, human TIM-3 coupled to human Fc (human, UniProt Q8TDQ0 22-200, limits assumed).
T1 construct: Antigen coated on ELISA plates and immobilised on the SPR chip; not shown: human Fc
Briefly: ELISA on plate-coated human TIM-3 coupled to human Fc.
As to B1, the binding result is listed as “binds”.

As for B2, the binding result was “binds”.

Take B3: the binding result is listed as “binds”.

Consider B4, for which the binding result is listed as “binds”.

As for B5, the binding result is “binds”.

Consider B6, for which the binding result was “binds”.
